From patent US20230357354A1, “CD38-BINDING CD31 PEPTIDES AND USES THEREOF” (ENCEFA, priority 2020, published 2023)

Tested on: dopaminergic (TH^+) neurons in midbrain cultures
Assay: MPP+ intoxication model: DA (TH+) cell survival in midbrain cultures
Assay type: cell-based, Wistar rat
Method: Animals were treated in accordance with the Guide for the Care and Use of Laboratory Animals (National Research Council, 1996), European Directive 86/609, and the guidelines of the local institutional animal care and use committee. Cultures were prepared from the ventral mesencephalon of gestational age 15.5 Wistar rat embryos (Janvier Breeding Center, Le Genest St Isle, France). Dissociated cells in suspension obtained by mechanical trituration of midbrain tissue pieces were seeded at a density of 1.2-1.5×10^5 cells/cm^2 onto tissue culture supports precoated with 1 mg/mL polyethylenimine diluted in borate buffer pH 8.3 as described (Michel et al., 1997. J Neurochem. 69(4):1499-507). The cultures were then maintained in N5 medium supplemented with 5 mM glucose, 5 % horse serum, and 0.5 % fetal calf serum, except for the first 3 DIV, when the concentration of fetal calf serum was 2.5% to favor initial maturation of the cultures (Guerreiro et al., 2008. Mol Pharmacol. 74(4):980-9). They were fed daily by replacing 70% of the medium. Routinely, mesencephalic cultures were established on Nunc 24-well culture plates (Thermofischer Scientific, Rochester, NY). Note that these cultures contain tyrosine hydroxylase (TH)^+ neurons that were exclusively dopaminergic (Traver et al., 2006. Mol Pharmacol. 70(1):30-40). […]

B1: murine sCD31: murine soluble CD31 (extracellular domain of CD31) having SEQ ID NO: 18, used in Example 1 (protein, listed as Mus musculus)
chain: MLLALGLTLVLYASLQAEENSFTINSIHMESLPSWEVMNGQQLTLECLVDISTTSKSRSQHRVLFYKDDAMVYNVTSREHTESYVIPQARVFHSGKYKCTVMLNNKEKTTIEYEVKVHGVSKPKVTLDKKEVTEGGVVTVNCSLQEEKPPIFFKIEKLEVGTKFVKRRIDKTSNENFVLMEFPIEAQDHVLVFRCQAGILSGFKLQESEPIRSEYVTVQESFSTPKFEIKPPGMIIEGDQLHIRCIVQVTHLVQEFTEIIIQKDKAIVATSKQSSEAVYSVMAMVEYSGHYTCKVESNRISKASSIMVNITELFPKPKLEFSSSRLDQGELLDLSCSVSGTPVANFTIQKEETVLSQYQNFSKIAEESDSGEYSCTAGIGKVVKRSGLVPIQVCEMLSKPSIFHDAKSEIIKGHAIGISCQSENGTAPITYHLMKAKSDFQTLEVTSNDPATFTDKPTRDMEYQCRADNCHSHPAVFSEILRVRVIAPVDEVVISILSSNEVQSGSEMVLRCSVKEGTSPITFQFYKEKEDRPFHQAVVNDTQAFWHNKQASKKQEGQYYCTASNRASSMRTSPRSSTLAVRVFL
modifications: Murine sCD31
EC50 of prevention of MPP^+-induced DA cell loss (3 µM MPP^+ between 5 and 7 DIV): 0.036 µg/mL | neuroprotective effect against MPP^+-induced DA cell death (MPP^+ 3 µM between 5 and 7 DIV, HB7 1 µg/mL): neuroprotective
